Publication PMC9482650, “Quantitative fragmentomics allow affinity mapping of interactomes” (Nature Communications, 2022)

Key:
Assay in all cases: holdup assay
Parameters in all cases: key: below the threshold = too weak to quantify, mostly under pKd 3.1 to 4
Conditions in all cases: plain residues with an end cap or a label only (N-terminal biotin on a linker: ado-ado)
GRIP1_5, Q9Y3R0 = molecular target: T1, GRIP1_5, Q9Y3R0
T1 sequence (Q9Y3R0 568-668, limits assumed, looked up): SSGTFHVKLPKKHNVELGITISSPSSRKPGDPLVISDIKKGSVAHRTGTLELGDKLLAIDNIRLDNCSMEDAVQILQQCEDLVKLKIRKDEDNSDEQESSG

MPP2, Q14168 = molecular target: T2, MPP2, Q14168
T2 sequence (Q14168 180-250, limits assumed, looked up): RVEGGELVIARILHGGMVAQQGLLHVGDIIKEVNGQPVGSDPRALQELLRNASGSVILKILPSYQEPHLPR

NHERF4_2, Q86UT5 = molecular target: NHERF4_2, Q86UT5
PTPN13_1, Q12923 = molecular target: T3, PTPN13_1, Q12923
T3 sequence (Q12923 1088-1188, limits assumed, looked up): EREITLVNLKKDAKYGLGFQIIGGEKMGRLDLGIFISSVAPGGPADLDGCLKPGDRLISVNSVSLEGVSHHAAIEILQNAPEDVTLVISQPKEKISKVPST

LIN7B, Q9HAP6 = molecular target: T4, LIN7B, Q9HAP6
T4 sequence (Q9HAP6 88-185, limits assumed, looked up): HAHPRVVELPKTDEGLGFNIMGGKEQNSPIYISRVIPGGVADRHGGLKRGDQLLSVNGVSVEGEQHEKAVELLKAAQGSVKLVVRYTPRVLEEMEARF

DLG4_2, P78352 = molecular target: DLG4_2, P78352
GIPC2, Q8TF65 = molecular target: GIPC2, Q8TF65
GRIP2_4, Q9C0E4 = molecular target: GRIP2_4, Q9C0E4
NHERF3_3, Q5T2W1 = molecular target: T5, NHERF3_3, Q5T2W1
T5 sequence (Q5T2W1 238-333, limits assumed, looked up): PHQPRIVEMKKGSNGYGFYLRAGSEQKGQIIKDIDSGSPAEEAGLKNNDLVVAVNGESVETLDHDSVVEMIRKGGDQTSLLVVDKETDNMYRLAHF

Inadl_8, Q8NI35 = molecular target: Inadl_8, Q8NI35
DFNB31_3, Q9P202 = molecular target: T6, DFNB31_3, Q9P202
T6 sequence (Q9P202 811-907, limits assumed, looked up): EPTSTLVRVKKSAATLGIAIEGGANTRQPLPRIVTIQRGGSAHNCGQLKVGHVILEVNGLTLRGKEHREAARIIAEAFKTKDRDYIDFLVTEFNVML

PARD3_3, Q8TEW0 = molecular target: PARD3_3, Q8TEW0
PCLO, Q9Y6V0 = molecular target: T7, PCLO, Q9Y6V0
T7 sequence (Q9Y6V0 4491-4600, limits assumed, looked up): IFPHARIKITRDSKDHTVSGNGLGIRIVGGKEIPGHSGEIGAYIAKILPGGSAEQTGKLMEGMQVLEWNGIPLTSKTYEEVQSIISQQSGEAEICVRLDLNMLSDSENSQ

FRMPD1, Q5SYB0 = molecular target: T8, FRMPD1, Q5SYB0
T8 sequence (Q5SYB0 52-145, limits assumed, looked up): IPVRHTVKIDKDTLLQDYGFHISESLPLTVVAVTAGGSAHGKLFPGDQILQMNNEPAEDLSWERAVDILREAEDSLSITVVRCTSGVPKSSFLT

PARD3B_1, Q8TEW8 = molecular target: T9, PARD3B_1, Q8TEW8
T9 sequence (Q8TEW8 196-299, limits assumed, looked up): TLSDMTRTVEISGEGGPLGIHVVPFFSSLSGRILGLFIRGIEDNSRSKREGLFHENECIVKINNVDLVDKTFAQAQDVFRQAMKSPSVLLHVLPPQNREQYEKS

LNX1_1, Q8TBB1 = molecular target: LNX1_1, Q8TBB1
LIN7C, Q9NUP9 = molecular target: T10, LIN7C, Q9NUP9
T10 sequence (Q9NUP9 88-185, limits assumed, looked up): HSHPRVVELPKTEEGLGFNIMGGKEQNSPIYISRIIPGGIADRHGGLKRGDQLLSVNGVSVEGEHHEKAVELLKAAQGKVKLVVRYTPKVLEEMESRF

MAGI2_4, Q86UL8 = molecular target: MAGI2_4, Q86UL8
ARHGEF11, O15085 = molecular target: T11, ARHGEF11, O15085
T11 sequence (O15085 42-136, limits assumed, looked up): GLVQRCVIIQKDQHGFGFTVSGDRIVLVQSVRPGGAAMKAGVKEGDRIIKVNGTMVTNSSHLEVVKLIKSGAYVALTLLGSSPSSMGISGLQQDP

Inadl_10, Q8NI35 = molecular target: Inadl_10, Q8NI35
GRID2IP_2, A4D2P6 = molecular target: GRID2IP_2, A4D2P6
IL16_3, Q14005 = molecular target: IL16_3, Q14005
NOS1, P29475 = molecular target: NOS1, P29475
ARHGAP21, Q5T5U3 = molecular target: T12, ARHGAP21, Q5T5U3
T12 sequence (Q5T5U3 45-169, limits assumed, looked up): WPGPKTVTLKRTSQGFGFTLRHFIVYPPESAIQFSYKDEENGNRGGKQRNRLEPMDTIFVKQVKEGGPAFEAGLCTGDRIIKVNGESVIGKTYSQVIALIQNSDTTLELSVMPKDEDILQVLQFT

DLG4_2, P78352, sequence (P78352 155-259): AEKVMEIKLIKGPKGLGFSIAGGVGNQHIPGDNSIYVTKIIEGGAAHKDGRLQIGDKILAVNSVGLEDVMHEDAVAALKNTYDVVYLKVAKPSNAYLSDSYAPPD
Inadl_10, Q8NI35, sequence (Q8NI35 1673-1763): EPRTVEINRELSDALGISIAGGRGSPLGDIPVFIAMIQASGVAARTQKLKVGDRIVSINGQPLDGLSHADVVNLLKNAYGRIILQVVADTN
IL16_3, Q14005, sequence (Q14005 1107-1207): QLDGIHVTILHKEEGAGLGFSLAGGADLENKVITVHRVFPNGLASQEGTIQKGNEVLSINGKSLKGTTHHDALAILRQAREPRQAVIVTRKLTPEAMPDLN
NOS1, P29475, sequence (P29475 9-101): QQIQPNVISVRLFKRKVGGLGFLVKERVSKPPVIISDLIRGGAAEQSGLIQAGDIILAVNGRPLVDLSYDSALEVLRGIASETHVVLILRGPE
LNX1_1, Q8TBB1, sequence (Q8TBB1 261-371): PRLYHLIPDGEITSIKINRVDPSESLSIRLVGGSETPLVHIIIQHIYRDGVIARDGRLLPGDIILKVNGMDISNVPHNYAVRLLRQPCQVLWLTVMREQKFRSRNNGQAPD
NHERF4_2, Q86UT5, sequence (Q86UT5 220-308): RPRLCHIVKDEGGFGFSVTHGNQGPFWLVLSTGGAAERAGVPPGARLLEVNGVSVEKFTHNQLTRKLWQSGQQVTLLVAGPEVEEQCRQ
GRID2IP_2, A4D2P6, sequence (A4D2P6 272-370): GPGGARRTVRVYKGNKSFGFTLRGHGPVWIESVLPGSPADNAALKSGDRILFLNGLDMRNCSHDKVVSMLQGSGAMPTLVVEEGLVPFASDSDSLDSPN
MAGI2_4, Q86UL8, sequence (Q86UL8 772-865): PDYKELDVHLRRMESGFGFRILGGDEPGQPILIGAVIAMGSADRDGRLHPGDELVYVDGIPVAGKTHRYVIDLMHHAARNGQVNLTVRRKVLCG
Inadl_8, Q8NI35, sequence (Q8NI35 1425-1530): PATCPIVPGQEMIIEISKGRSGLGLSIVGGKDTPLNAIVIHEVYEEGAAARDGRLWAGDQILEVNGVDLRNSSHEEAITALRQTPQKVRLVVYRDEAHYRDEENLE
PARD3_3, Q8TEW0, sequence (Q8TEW0 582-685): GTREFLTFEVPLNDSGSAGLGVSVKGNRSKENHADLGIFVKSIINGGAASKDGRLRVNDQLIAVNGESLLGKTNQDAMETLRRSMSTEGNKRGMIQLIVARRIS
GRIP2_4, Q9C0E4, sequence (Q9C0E4 446-548): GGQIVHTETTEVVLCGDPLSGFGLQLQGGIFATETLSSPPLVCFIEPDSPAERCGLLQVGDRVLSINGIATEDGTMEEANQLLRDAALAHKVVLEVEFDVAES
GIPC2, Q8TF65, sequence (Q8TF65 112-203): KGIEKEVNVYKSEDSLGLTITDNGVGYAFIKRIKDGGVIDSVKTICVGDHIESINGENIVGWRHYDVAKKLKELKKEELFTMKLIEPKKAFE

Binder: FTLPAESSEI [PLEKHG7, Q6ZR37]
- pKd (GRIP1_5, Q9Y3R0): below the threshold
- pKd (MPP2, Q14168): below the threshold
- pKd (NHERF4_2, Q86UT5): below the threshold
- pKd (PTPN13_1, Q12923): below the threshold
- pKd (LIN7B, Q9HAP6): 3.61
- pKd (DLG4_2, P78352): below the threshold
- pKd (GIPC2, Q8TF65): below the threshold
- pKd (GRIP2_4, Q9C0E4): below the threshold
- pKd (NHERF3_3, Q5T2W1): below the threshold
- pKd (Inadl_8, Q8NI35): below the threshold
- pKd (DFNB31_3, Q9P202): 3.63
- pKd (PARD3_3, Q8TEW0): below the threshold
- pKd (PCLO, Q9Y6V0): below the threshold
- pKd (FRMPD1, Q5SYB0): below the threshold
- pKd (PARD3B_1, Q8TEW8): below the threshold
- pKd (LNX1_1, Q8TBB1): below the threshold
- pKd (LIN7C, Q9NUP9): below the threshold
- pKd (MAGI2_4, Q86UL8): below the threshold
- pKd (ARHGEF11, O15085): below the threshold
- pKd (Inadl_10, Q8NI35): below the threshold
- pKd (GRID2IP_2, A4D2P6): 4.2
- pKd (IL16_3, Q14005): below the threshold
- pKd (NOS1, P29475): below the threshold
- pKd (ARHGAP21, Q5T5U3): below the threshold

Binder: HLRQQGSVEV [EPHB6, O15197]
- pKd (GRIP1_5, Q9Y3R0): below the threshold
- pKd (MPP2, Q14168): below the threshold
- pKd (NHERF4_2, Q86UT5): below the threshold
- pKd (PTPN13_1, Q12923): below the threshold
- pKd (LIN7B, Q9HAP6): below the threshold
- pKd (DLG4_2, P78352): 3.72
- pKd (GIPC2, Q8TF65): below the threshold
- pKd (GRIP2_4, Q9C0E4): below the threshold
- pKd (NHERF3_3, Q5T2W1): below the threshold
- pKd (Inadl_8, Q8NI35): below the threshold
- pKd (DFNB31_3, Q9P202): below the threshold
- pKd (PARD3_3, Q8TEW0): below the threshold
- pKd (PCLO, Q9Y6V0): below the threshold
- pKd (FRMPD1, Q5SYB0): below the threshold
- pKd (PARD3B_1, Q8TEW8): 3.69
- pKd (LNX1_1, Q8TBB1): below the threshold
- pKd (LIN7C, Q9NUP9): below the threshold
- pKd (MAGI2_4, Q86UL8): below the threshold
- pKd (ARHGEF11, O15085): 4.13
- pKd (Inadl_10, Q8NI35): below the threshold
- pKd (GRID2IP_2, A4D2P6): below the threshold
- pKd (IL16_3, Q14005): below the threshold
- pKd (NOS1, P29475): 3.88
- pKd (ARHGAP21, Q5T5U3): 4.16

Binder: TGLWKSETTV [ADGRA2, Q96PE1]
- pKd (GRIP1_5, Q9Y3R0): below the threshold
- pKd (MPP2, Q14168): below the threshold
- pKd (NHERF4_2, Q86UT5): below the threshold
- pKd (PTPN13_1, Q12923): below the threshold
- pKd (LIN7B, Q9HAP6): 3.51
- pKd (DLG4_2, P78352): 5.22
- pKd (GIPC2, Q8TF65): 4.04
- pKd (GRIP2_4, Q9C0E4): below the threshold
- pKd (NHERF3_3, Q5T2W1): below the threshold
- pKd (Inadl_8, Q8NI35): 3.65
- pKd (DFNB31_3, Q9P202): 3.88
- pKd (PARD3_3, Q8TEW0): below the threshold
- pKd (PCLO, Q9Y6V0): below the threshold
- pKd (FRMPD1, Q5SYB0): below the threshold
- pKd (PARD3B_1, Q8TEW8): below the threshold
- pKd (LNX1_1, Q8TBB1): below the threshold
- pKd (LIN7C, Q9NUP9): 4.29
- pKd (MAGI2_4, Q86UL8): 4.88
- pKd (ARHGEF11, O15085): 4.13
- pKd (Inadl_10, Q8NI35): below the threshold
- pKd (GRID2IP_2, A4D2P6): below the threshold
- pKd (IL16_3, Q14005): below the threshold
- pKd (NOS1, P29475): 3.56
- pKd (ARHGAP21, Q5T5U3): 4.03

Binder: NLQEHSTTSV [RSBN1, Q5VWQ0]
- pKd (GRIP1_5, Q9Y3R0): below the threshold
- pKd (MPP2, Q14168): below the threshold
- pKd (NHERF4_2, Q86UT5): below the threshold
- pKd (PTPN13_1, Q12923): below the threshold
- pKd (LIN7B, Q9HAP6): below the threshold
- pKd (DLG4_2, P78352): 3.88
- pKd (GIPC2, Q8TF65): below the threshold
- pKd (GRIP2_4, Q9C0E4): below the threshold
- pKd (NHERF3_3, Q5T2W1): below the threshold
- pKd (Inadl_8, Q8NI35): 3.81
- pKd (DFNB31_3, Q9P202): below the threshold
- pKd (PARD3_3, Q8TEW0): below the threshold
- pKd (PCLO, Q9Y6V0): below the threshold
- pKd (FRMPD1, Q5SYB0): below the threshold
- pKd (PARD3B_1, Q8TEW8): below the threshold
- pKd (LNX1_1, Q8TBB1): below the threshold
- pKd (LIN7C, Q9NUP9): below the threshold
- pKd (MAGI2_4, Q86UL8): 3.5
- pKd (ARHGEF11, O15085): 4.13
- pKd (Inadl_10, Q8NI35): below the threshold
- pKd (GRID2IP_2, A4D2P6): 3.8
- pKd (IL16_3, Q14005): below the threshold
- pKd (NOS1, P29475): below the threshold
- pKd (ARHGAP21, Q5T5U3): below the threshold

Binder: EWTDERQSKV [GAB3, Q8WWW8]
- pKd (GRIP1_5, Q9Y3R0): below the threshold
- pKd (MPP2, Q14168): below the threshold
- pKd (NHERF4_2, Q86UT5): below the threshold
- pKd (PTPN13_1, Q12923): below the threshold
- pKd (LIN7B, Q9HAP6): below the threshold
- pKd (DLG4_2, P78352): 4.03
- pKd (GIPC2, Q8TF65): 3.52
- pKd (GRIP2_4, Q9C0E4): below the threshold
- pKd (NHERF3_3, Q5T2W1): below the threshold
- pKd (Inadl_8, Q8NI35): 4.02
- pKd (DFNB31_3, Q9P202): below the threshold
- pKd (PARD3_3, Q8TEW0): below the threshold
- pKd (PCLO, Q9Y6V0): below the threshold
- pKd (FRMPD1, Q5SYB0): below the threshold
- pKd (PARD3B_1, Q8TEW8): below the threshold
- pKd (LNX1_1, Q8TBB1): 3.52
- pKd (LIN7C, Q9NUP9): below the threshold
- pKd (MAGI2_4, Q86UL8): below the threshold
- pKd (ARHGEF11, O15085): 3.75
- pKd (Inadl_10, Q8NI35): below the threshold
- pKd (GRID2IP_2, A4D2P6): 4.07
- pKd (IL16_3, Q14005): below the threshold
- pKd (NOS1, P29475): below the threshold
- pKd (ARHGAP21, Q5T5U3): 4.07

Binder: ASGLDKRDYV [CLDN9, O95484]
- pKd (GRIP1_5, Q9Y3R0): below the threshold
- pKd (MPP2, Q14168): below the threshold
- pKd (NHERF4_2, Q86UT5): below the threshold
- pKd (PTPN13_1, Q12923): below the threshold
- pKd (LIN7B, Q9HAP6): below the threshold
- pKd (DLG4_2, P78352): below the threshold
- pKd (GIPC2, Q8TF65): below the threshold
- pKd (GRIP2_4, Q9C0E4): below the threshold
- pKd (NHERF3_3, Q5T2W1): below the threshold
- pKd (Inadl_8, Q8NI35): 3.91
- pKd (DFNB31_3, Q9P202): below the threshold
- pKd (PARD3_3, Q8TEW0): below the threshold
- pKd (PCLO, Q9Y6V0): below the threshold
- pKd (FRMPD1, Q5SYB0): below the threshold
- pKd (PARD3B_1, Q8TEW8): below the threshold
- pKd (LNX1_1, Q8TBB1): below the threshold
- pKd (LIN7C, Q9NUP9): 4
- pKd (MAGI2_4, Q86UL8): below the threshold
- pKd (ARHGEF11, O15085): below the threshold
- pKd (Inadl_10, Q8NI35): below the threshold
- pKd (GRID2IP_2, A4D2P6): below the threshold
- pKd (IL16_3, Q14005): below the threshold
- pKd (NOS1, P29475): 4.22
- pKd (ARHGAP21, Q5T5U3): below the threshold
